This is an account of results in publication PMC4057782, “tRNA synthetase counteracts c-Myc to develop functional vasculature” (eLife, 2014).

For this assay, the target named is T1, GST-SerRS fusion protein (full-length human SerRS) (human, UniProt P49591 1-514).
T1 construct: also called GST-tagged SerRS
Nature of the assay: pull-down; GST or GST-SerRS fusion proteins (full-length or domain fragments) incubated with recombinant His-tagged SIRT2 for two hours and pulled down on Glutathione-Sepharose 4B; 20 mM HEPES pH 7.9, 150 mM NaCl, 0.5 mM EDTA, 10% glycerol, 0.1% Triton X-100, 1 mM DTT; SIRT2 detected with anti-His6. The conditions noted are these: both partners purified.

T1 sequence (P49591 whole entry, the tested form may be a part): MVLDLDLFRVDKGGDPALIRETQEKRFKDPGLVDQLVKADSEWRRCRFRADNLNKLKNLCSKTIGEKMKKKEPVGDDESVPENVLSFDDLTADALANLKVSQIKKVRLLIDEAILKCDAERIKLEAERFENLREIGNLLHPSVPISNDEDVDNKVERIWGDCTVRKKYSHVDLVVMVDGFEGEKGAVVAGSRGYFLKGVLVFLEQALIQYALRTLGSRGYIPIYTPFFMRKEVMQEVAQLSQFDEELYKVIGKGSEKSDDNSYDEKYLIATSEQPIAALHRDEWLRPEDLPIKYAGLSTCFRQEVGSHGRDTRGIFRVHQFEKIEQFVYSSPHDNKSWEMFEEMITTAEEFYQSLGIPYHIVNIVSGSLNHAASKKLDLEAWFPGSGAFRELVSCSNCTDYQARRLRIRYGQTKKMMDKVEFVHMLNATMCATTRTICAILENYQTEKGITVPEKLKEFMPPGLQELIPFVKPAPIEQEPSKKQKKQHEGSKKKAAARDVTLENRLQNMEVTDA

B1: purified His-tagged human SIRT2 (enzyme, UniProt Q8IXJ6 1-389, looked up)
chain: MAEPDPSHPLETQAGKVQEAQDSDSDSEGGAAGGEADMDFLRNLFSQTLSLGSQKERLLDELTLEGVARYMQSERCRRVICLVGAGISTSAGIPDFRSPSTGLYDNLEKYHLPYPEAIFEISYFKKHPEPFFALAKELYPGQFKPTICHYFMRLLKDKGLLLRCYTQNIDTLERIAGLEQEDLVEAHGTFYTSHCVSASCRHEYPLSWMKEKIFSEVTPKCEDCQSLVKPDIVFFGESLPARFFSCMQSDFLKVDLLLVMGTSLQVQPFASLISKAPLSTPRLLINKEKAGQSDPFLGMIMGLGGGMDFDSKKAYRDVAWLGECDQGCLALAELLGWKKELEDLVRREHASIDAQSGAGVPNPSTSASPKKSPPPAKDEARTTEREKPQ
notes: The SIRT2 of the deacetylase assay is called only 'recombinant human SIRT2'; it may have come from the CycLex kit; also called recombinant SIRT2; His-tagged SIRT2; not shown: His tag, C-terminal, kept
In the case of B1, the binding result is reported as “binds”.
